Experimental data reported in US20230303666A1 (published 2023).

B1: SR6c3 (VHH)
VHH: EVQLVESGGGLVQAGDSLRLSCAASGDCHVLWRMGWFRQAPGKEREFVAAISLDGQFTNYADSVRGRFSISADSAKNTVYLQMNSLKPEDTAVYYCAALPFLDYWGQGTQVTVSS
B2: SR6v15.d (VHH)
chain: EVQLVESGGGLVQAGDSLRLSCAASGDSYILWRMGWFRQAPGKEREFVAAISLDGQFTNYADSVRGRFSISADSAKYTVYLQMNSLKPEDTAVYYCAALPFLDYWGQGTQVTVSSEVQLVESGGGLVQAGDSLRLSCAASGDSYILWRMGWFRQAPGKEREFVAAISLDGQFTNYADSVRGRFSISADSAKYTVYLQMNSLKPEDTAVYYCAALPFLDYWGQGTQVTVSS

Target: SARS-CoV-2 S on pseudotyped lentivirus (pCMV-SARS2deltaC-gp41) (SARS-CoV-2, UniProt P0DTC2 14-1246)
Assay: cell-based or functional assay

Binder	IC50 of neutralization of pseudotyped lentiviral infection	IC50 of pseudovirus neutralization	pseudovirus neutralization potency, fold increase against monomeric SR6v15
B1	62.7 nM	–	–
B2	–	0.329 nM	> 10 fold
